Experimental data reported in US20250163122A1, “COMPOSITIONS AND METHODS FOR TREATING AIRWAY MUCUS DYSFUNCTION” (BOARD OF REGENTS, THE UNIVERSITY OF TEXAS SYSTEM, priority 2022, published 2025).
Where a SMILES comes first, the peptide text is derived from it. Bridges are numbered along the chain shown (N, C = ends). [ ]: non-standard residue; d: D form. S5 = C=CCCC[C@](C)(N)C(=O)O

Biological target: airway SNAREs and Syt2 (Rattus norvegicus, UniProt P29101)
Experiment: Single vesicle content mixing assay, airway SNAREs and Syt2 (airway PM and SG vesicles)
Format: biochemical
Settings: for Ca2+ triggered fusion events / Ca2+ independent fusion events: 10 μM peptide, raw count; for Ca2+ triggered fusion events: 500 μM Ca2+
Excerpt: For single vesicle content mixing assay, the lipid composition of the SV, SG, VAMP2, or VAMP8 vesicles was phosphatidylcholine (PC) (48%), phosphatidylethanolamine (PE) (20%), phosphatidylserine (PS) (12%), and cholesterol (20%); for both the neuronal and airway PM vesicles the lipid composition was Brain Total Lipid Extract supplemented 3.5 mol % PIP2, and 0.1 mol % biotinylated phosphatidylethanolamine (PE).
The reconstitution method for neuronal PM and SV vesicles was described in detail previously (see Lai et al., 2017; Kyoung et al., 2011; and Lai et al., 2014). The same methods were used for airway PM, SG, VAMP2, and VAMP8 vesicles. Dried lipid films were dissolved in 110 mM OG buffer containing purified proteins at protein-to-lipid ratios of 1:200 for VAMP2 and Stx1A for SV and neuronal PM vesicles, respectively (or 1:200 for VAMP8 and Stx3 for SG and airway PM vesicles, respectively), and 1:800 for Syt1 for SV vesicles (or 1:1200 for Syt2 for SG vesicles).
A 3-5 fold excess of SNAP-25A or SNAP-23 (with respect to Stx1A or Stx3) and 3.5 mol % PIP2 were added to the protein-lipid mixture for neuronal or airway PM vesicles. […] For the preparation of SV, SG, VAMP2, or VAMP8 vesicles for single vesicle content mixing assay, 50 mM sulforhodamine B (Thermo Fisher Scientific) was added to the protein-lipid mixture. The vesicles subsequently formed during size exclusion chromatography using a Sepharose CL-4B column, packed under near constant pressure by gravity with a peristaltic pump (GE Healthcare) in a 5.5 ml column with a ˜5 ml bed volume that was equilibrated with buffer V (20 mM HEPES, pH 7.4, 90 mM NaCl) supplemented with 20 μM EGTA and 0.1% 2-mercaptoethanol. The eluent was subjected to dialysis into 21 of detergent-free buffer V supplemented with 20 μM EGTA, 0.1% 2-mercaptoethanol, 5 g of Bio-beads SM2 (Bio-Rad) and 0.8 g/L Chelex 100 resin (Bio-Rad). After 4 hours, the buffer was exchanged with 21 of fresh buffer V supplemented with 20 μM EGTA, 0.1% 2-mercaptoethanol and Bio-beads, and the dialysis continued for another 12 h (overnight). […] For ensemble lipid mixing assay, the reconstitution method is the same as that for the single vesicle content mixing assay, except that 50 mM sulforhodamine B was omitted for all the steps.
Single vesicle content mixing experiments. All single vesicle fusion and single molecule experiments were performed on a prism-type total internal reflection fluorescence (TIRF) microscope using 532 nm (green) laser (CrystaLaser) excitation. Two observation channels were created by a 640 nm single-edge dichroic beamsplitter (FF640-FDi01-25x36, Shemrock): one channel was used for the fluorescence emission intensity of the content dyes and the other channel for that of the Cy5 dye that are part of the injected Ca^2+-solution. The two channels were recorded on two adjacent rectangular areas (45×90 m^2) of a charge-coupled device (CCD) camera (iXon+DV 897E, Andor Technology). The imaging data were recorded with the smCamera software developed by Taekjip Ha, Johns Hopkins University, Baltimore.
Flow chambers were assembled by creating a “sandwich” consisting of a quartz slide and a glass coverslip that were both coated with polyethylene glycol (PEG) molecules consisting 0.1% (w/v) biotinylated-PEG except when stated otherwise, and using double-sided tape to create up to five flow-chambers.
The single vesicle content mixing assay described in Lai et al. (2014) was used to monitor vesicle-vesicle association, Ca^2+-independent, and Ca^2+-triggered fusion. The surface of the quartz slides was passivated by coating the surface with polyethylene glycol (PEG) molecules which alleviated non-specific binding of vesicles. The same protocol and quality controls (surface coverage and non-specific binding) were used as described previously (Kyoung et al., 2011; Kyoung et al., 2012) except that PEG-SVA (Laysan Bio) instead of mPEG-SCM (Laysan Bio) was used since it has a longer half-life. […]

Chain of airway SNAREs and Syt2 (P29101 whole entry): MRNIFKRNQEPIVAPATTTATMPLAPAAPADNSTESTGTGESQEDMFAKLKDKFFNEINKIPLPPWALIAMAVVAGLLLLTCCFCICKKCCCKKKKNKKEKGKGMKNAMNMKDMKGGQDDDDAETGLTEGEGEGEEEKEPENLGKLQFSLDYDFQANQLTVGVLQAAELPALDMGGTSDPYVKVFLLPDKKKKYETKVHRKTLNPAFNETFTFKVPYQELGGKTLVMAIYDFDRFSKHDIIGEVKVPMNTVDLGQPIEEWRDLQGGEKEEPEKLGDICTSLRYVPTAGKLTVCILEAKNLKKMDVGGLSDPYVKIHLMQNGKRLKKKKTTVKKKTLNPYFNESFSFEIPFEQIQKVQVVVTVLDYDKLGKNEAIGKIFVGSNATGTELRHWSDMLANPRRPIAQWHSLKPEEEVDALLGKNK

| Compound | Ca2+ triggered fusion events | Ca2+ independent fusion events | effect on Ca2+-triggered cumulative fusion probability (up to 10 μM peptide) | effect on intrinsic Ca2+-independent fusion probability (up to 10 μM peptide) |
| --- | --- | --- | --- | --- |
| CC[C@H](C)[C@H](NC(=O)[C@]1(C)CCCC=CCCC[C@](C)(NC(=O)[C@H](CCC(=O)O)NC(=O)[C@H](CCC(=O)O)NC(C)=O)C(=O)N[C@@H](CCCCN)C(=O)N[C@@H](CC(=O)O)C(=O)N[C@@H](C)C(=O)N1)C(=O)N[C@@H](CCCNC(=N)N)C(=O)N[C@@]1(C)CCCC=CCCC[C@@](C)(C(=O)N[C@@H](CC(=O)O)C(=O)N[C@@H](CCC(=O)O)C(=O)N[C@@H](CCC(N)=O)C(=O)N[C@@H](CS)C(N)=O)NC(=O)[C@H](CCSC)NC(=O)[C@H](C(C)C)NC(=O)[C@H](CC(C)C)NC1=O [SP9, Ac-EE(S5)KDA(S5)IR(S5)LVM(S5)DEQC-amide] (Ac-EE[S5]KDA[S5]IR[S5]LVM[S5]DEQC-NH2; staple 3-7, 10-14) | 250 | 274 |  |  |
| Ac-SKD(S5)GIR(S5)LV(S5)LDE(S5)GEQL-amide (Ac-SKD[S5]GIR[S5]LV[S5]LDE[S5]GEQL-NH2; staple 11-15, 4-8; SMILES CC[C@H](C)[C@@H]1NC(=O)CNC(=O)[C@@](C)(NC(=O)[C@H](CC(=O)O)NC(=O)[C@H](CCCCN)NC(=O)[C@H](CO)NC(C)=O)CCCC=CCCC[C@@](C)(C(=O)N[C@@H](CC(C)C)C(=O)N[C@H](C(=O)N[C@@]2(C)CCCC=CCCC[C@@](C)(C(=O)NCC(=O)N[C@@H](CCC(=O)O)C(=O)N[C@@H](CCC(N)=O)C(=O)N[C@@H](CC(C)C)C(N)=O)NC(=O)[C@H](CCC(=O)O)NC(=O)[C@H](CC(=O)O)NC(=O)[C@H](CC(C)C)NC2=O)C(C)C)NC(=O)[C@H](CCCNC(=N)N)NC1=O) [SP10] | 273 | 327 |  |  |
| Ac-SKD(S5)GIR(S5)LVMLDE(S5)GEQ(S5)DR-amide (Ac-SKD[S5]GIR[S5]LVMLDE[S5]GEQ[S5]DR-NH2; staple 15-19, 4-8; SMILES CC[C@H](C)[C@@H]1NC(=O)CNC(=O)[C@@](C)(NC(=O)[C@H](CC(=O)O)NC(=O)[C@H](CCCCN)NC(=O)[C@H](CO)NC(C)=O)CCCC=CCCC[C@@](C)(C(=O)N[C@@H](CC(C)C)C(=O)N[C@H](C(=O)N[C@@H](CCSC)C(=O)N[C@@H](CC(C)C)C(=O)N[C@@H](CC(=O)O)C(=O)N[C@@H](CCC(=O)O)C(=O)N[C@@]2(C)CCCC=CCCC[C@@](C)(C(=O)N[C@@H](CC(=O)O)C(=O)N[C@@H](CCCNC(=N)N)C(N)=O)NC(=O)[C@H](CCC(N)=O)NC(=O)[C@H](CCC(=O)O)NC(=O)CNC2=O)C(C)C)NC(=O)[C@H](CCCNC(=N)N)NC1=O) [SP1] | 275 | 251 |  |  |
| Ac-SKDA(S5)IRT(S5)VM(S5)DEQ(S5)EQL-amide (Ac-SKDA[S5]IRT[S5]VM[S5]DEQ[S5]EQL-NH2; staple 12-16, 5-9; SMILES CC[C@H](C)[C@@H]1NC(=O)[C@@](C)(NC(=O)[C@H](C)NC(=O)[C@H](CC(=O)O)NC(=O)[C@H](CCCCN)NC(=O)[C@H](CO)NC(C)=O)CCCC=CCCC[C@@](C)(C(=O)N[C@H](C(=O)N[C@@H](CCSC)C(=O)N[C@@]2(C)CCCC=CCCC[C@@](C)(C(=O)N[C@@H](CCC(=O)O)C(=O)N[C@@H](CCC(N)=O)C(=O)N[C@@H](CC(C)C)C(N)=O)NC(=O)[C@H](CCC(N)=O)NC(=O)[C@H](CCC(=O)O)NC(=O)[C@H](CC(=O)O)NC2=O)C(C)C)NC(=O)[C@H]([C@@H](C)O)NC(=O)[C@H](CCCNC(=N)N)NC1=O) [SP4] | 231 | 237 |  |  |
| EESKDAGIRTLVMLDEQGEQLD [Peptide P0, non-stapled SNAP-25A fragment used as a control, reference compound] | 219 | 113 | no effect | no effect |
